Data set [1] deals with the molecule itself. As to the kind of experiment: crystal structure; AldA C302A with IAA and NAD+, hanging drop at 4°C, 24% PEG-1000, 100 mM Tris/HCl pH 7.0; 2.85 Å; eight monomers in the asymmetric unit.
Data set [2] deals with the molecule itself. Briefly: SEC. For orientation: Size exclusion chromatography separates by hydrodynamic size, large species first.

Substitutions are numbered along the chain they refer to. In names and notes the source's numbering stands.

B1: AldA C302A mutant (enzyme)
chain: MTTLTRADWEQRAQNLKIEGRAFIQGEYTAAASGETFDCISPVDGRLLAKVASCDAADAQRAVESARSAFDSGAWSRLAPAKRKATMIRFAGLLEQNAEELALLETLDMGKPISDSLGVDIPGGARALSWSGEAIDKLYDEVAATPHDQLGLVTREPVGVVAAIVPWNFPLMMACWKLGPALSTGNSVVLKPSEKSPLTAIRIAQLAIEAGIPAGVLNVLPGYGHTVGKALALHMDVDTVVFTGSTKIAKQLMIYAGESNMKRVWLEAGGKSPNIVFADAPDLQAAADSAASAIAFNQGEVATAGSRLLVERSIKDRFLPMVIEALGTWKPGNPLDPATNVGALVDTQQMNTVLSYIAAGHTDGARLVAGGKQILQETGGTYVEPTIFDGVNNAMRIAQEEIFGPVLSVLTFDTAEEAIQIANDTPYGLAAAVWTANLSKAHLTARALRAGSVWVNQYDGGDMTAPFGGFKQSGNGRDKSLHAFDKYTELKSTWIKL
notes: source: E. coli BL21 (DE3), purified (Ni-NTA, Superdex-200 size-exclusion)
As to B1, the “stoichiometry N” value in data set [1] stood at 4.

B2: AldA indole-3-acetaldehyde dehydrogenase from Pseudomonas syringae strain PtoDC3000, wild-type (enzyme)
chain: B1 chain with A302C
notes: also called wild-type AldA; WT; source: E. coli BL21 (DE3), purified (Ni-NTA, Superdex-200 size-exclusion)
B2: the “stoichiometry N” value in data set [2] was 4.

B3: AldA E267Q mutant (enzyme)
chain: B1 chain with E267Q, A302C
notes: as for B1
For B3, the “stoichiometry N” value in data set [2] was 4.

B4: AldA E267A mutant (enzyme)
chain: B1 chain with E267A, A302C
notes: as for B1
On to B4, for which, in data set [2], the “stoichiometry N” value was 4.

What is called stoichiometry N is a count of units in the complex or per binding partner.

The values above are taken from publication PMC7745063, “Investigating the reaction and substrate preference of indole-3-acetaldehyde dehydrogenase from the plant pathogen Pseudomonas syringae PtoDC3000” (Bioscience Reports, 2020).
